Key:
thrombin [1] = target: T1, thrombin (Homo sapiens, UniProt P00734); assay: Thrombin inhibition, hydrolysis of chromogenic substrate S-2238; format: biochemical; design: Brown and cyan colors represent heavy and light chain of thrombin respectively
factor Xa = target: T2, factor Xa (Homo sapiens, UniProt P00742); assay: Serine protease inhibition test, factor Xa (chromogenic substrate); format: biochemical; conditions: recombinant protein 1, 100, 200 nM; protease 100 pM; 6 h at 37° C.
T2 construct: Serine protease (100 pM; thrombin, plasmin, trypsin or factor Xa) was incubated with recombinant protein; For factor Xa activity, buffer contained phosphatidylserine and phosphatidylcholine 50 μM
Description: (A) Inhibition of serine proteases through recombinant protein. Serine protease (100 pM; thrombin, plasmin, trypsin or factor Xa) was incubated with recombinant protein (1, 100 and 200 nM) in phosphate buffer 50 mM containing NaCl 150 mM and 0.1% of PEG 6000, pH 7.4 for 6 h at 37° C. Following addition of chromogenic substrate corresponding to reaction mixture, hydrolysis thereof was monitored at 405 nm. For factor Xa activity, buffer contained phosphatidylserine and phosphatidylcholine 50 μM. […] (B) Typical curves for hydrolysis of chromogenic substrate S-2238 (15 μM) by thrombin 0.1 nM in absence (trace a) or presence of recombinant protein (trace b, 15 pM; trace c, 30 pM; trace d, 60 pM and trace e, 100 pM) in phosphate buffer 50 mM containing NaCl 150 mM and 0.1% of PEG 6000, pH 7.4 at 37° C. (C) Residual activity of thrombin in presence of increasing concentration of recombinant protein. (D) Dose-response curves for thrombin inhibition by recombinant protein. Percentage of thrombin inhibition was plotted versus the concentration record of recombinant protein. Experimental condition of (C) and (D) is the same as in (B).
The first performed experiment was the test of serine proteases inhibition through recombinant protein. […] Hydrolysis of a chromogenic substrate through serine proteases in the presence and absence of recombinant protein was monitored in a spectrophotometer way. […]

plasmin = target: T3, plasmin (Homo sapiens, UniProt P00747); assay: Degradation of recombinant protein by plasmin (SDS-PAGE and residual thrombin inhibition); format: in vitro ADME
T3 construct: Serine protease (100 pM; thrombin, plasmin, trypsin or factor Xa) was incubated with recombinant protein
Description: (§1) Recombinant protein (10 μM) was incubated with or without serine protease 1 μM (thrombin, plasmin, trypsin or factor Xa) in phosphate buffer 50 mM containing NaCl 150 mM and 0.1% of PEG 6000, pH 7.4 for 4, 6, 7 or 18 h at 37° C. Reaction mixtures (20 μl) were split by SDS-PAGE. (A) hydrolysis SDS-PAGE (15%) of recombinant protein by serine proteases following 6 h of incubation. (B) Percentage of thrombin inhibition by recombinant protein following 6 h of incubation with serine protease (see experimental procedures). (C) hydrolysis SDS-PAGE (15%) of recombinant protein by serine proteases following 18 h of incubation. (D) Percentage of thrombin inhibition by recombinant protein following 18 h of incubation with serine protease (see experimental procedures). Numbering of (B) and (D) corresponds to numbering of (A) and (C), respectively, and recombinant protein control is represented by CTRL. Recombinant protein (strip 1); thrombin (strip 2) and thrombin with recombinant protein (strip 3); plasmin (strip 4) and plasmin with recombinant protein (strip 5); trypsin (strip 6) and trypsin with recombinant protein (strip 7); factor Xa (strip 8) and factor Xa with recombinant protein (strip 9) and protein marker (strip 10; in A). (E) Identification of cleavage sites of thrombin in recombinant protein following 7 h of incubation. (F) Identification of cleavage sites of factor Xa in recombinant protein following 4 h of incubation. Cleavage sites of thrombin and factor Xa in recombinant protein sequence are shown in FIGS. S1 and S2, respectively. Experimental procedure for (C), (D), (E) and (F) was the same as for (A) and (B), except the incubation time and the type of serine protease used. FIG. 5 discloses “GKPQG” as SEQ ID NO: 18, “MPKGG” as SEQ ID NO: 19, and “SDAVH” as SEQ ID NO: 20.
(§2) Afterwards, it was determined whether serine proteases, like thrombin, plasmin, factor Xa and trypsin, hydrolyze recombinant protein. […] Upon addition of chromogenic substrate S-2238, the hydrolysis thereof by thrombin was monitored in spectrophotometer way. […]

thrombin [2] = target: T1, thrombin; assay: Degradation of recombinant protein by thrombin (SDS-PAGE and residual thrombin inhibition); format: in vitro ADME; design: Brown and cyan colors represent heavy and light chain of thrombin respectively
Description: as §1, §2

trypsin = target: T4, trypsin (Bos taurus, UniProt P00760); assay: Degradation of recombinant protein by trypsin (SDS-PAGE and residual thrombin inhibition); format: in vitro ADME
T4 construct: gene PRSS1
T4 sequence (P00760 24-246): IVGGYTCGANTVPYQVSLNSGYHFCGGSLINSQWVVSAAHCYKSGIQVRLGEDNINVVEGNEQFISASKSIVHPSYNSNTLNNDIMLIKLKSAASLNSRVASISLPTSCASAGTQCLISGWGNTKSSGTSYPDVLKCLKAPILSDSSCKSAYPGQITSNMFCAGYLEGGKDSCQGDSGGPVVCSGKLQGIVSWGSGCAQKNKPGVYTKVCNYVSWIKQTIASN
Description: as §1, §2

[3] = from plot of Kobs versus recombinant protein concentration

T3 sequence (P00747 581-810 limits assumed, species assumed): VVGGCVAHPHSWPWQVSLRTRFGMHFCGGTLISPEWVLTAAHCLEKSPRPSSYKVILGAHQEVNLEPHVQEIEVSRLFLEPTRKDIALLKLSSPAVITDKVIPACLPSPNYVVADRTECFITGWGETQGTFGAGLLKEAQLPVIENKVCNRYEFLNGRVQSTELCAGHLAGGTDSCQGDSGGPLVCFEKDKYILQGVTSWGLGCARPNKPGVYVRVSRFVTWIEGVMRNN
T3 sequence (P00747 97-580 limits assumed, species assumed): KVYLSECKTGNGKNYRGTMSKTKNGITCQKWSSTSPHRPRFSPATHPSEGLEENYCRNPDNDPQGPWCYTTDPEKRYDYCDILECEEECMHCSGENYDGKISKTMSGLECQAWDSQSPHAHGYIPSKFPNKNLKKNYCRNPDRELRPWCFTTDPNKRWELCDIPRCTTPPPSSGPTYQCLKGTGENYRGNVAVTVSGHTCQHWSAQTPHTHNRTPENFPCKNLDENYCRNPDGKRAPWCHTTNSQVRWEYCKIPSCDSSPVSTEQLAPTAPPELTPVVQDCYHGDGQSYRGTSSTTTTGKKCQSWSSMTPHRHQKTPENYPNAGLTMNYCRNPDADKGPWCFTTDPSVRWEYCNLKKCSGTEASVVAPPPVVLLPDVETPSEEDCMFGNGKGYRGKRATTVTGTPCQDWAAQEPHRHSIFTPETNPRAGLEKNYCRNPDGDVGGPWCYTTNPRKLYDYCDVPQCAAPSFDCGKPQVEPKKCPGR
T2 sequence (P00742 235-488 limits assumed): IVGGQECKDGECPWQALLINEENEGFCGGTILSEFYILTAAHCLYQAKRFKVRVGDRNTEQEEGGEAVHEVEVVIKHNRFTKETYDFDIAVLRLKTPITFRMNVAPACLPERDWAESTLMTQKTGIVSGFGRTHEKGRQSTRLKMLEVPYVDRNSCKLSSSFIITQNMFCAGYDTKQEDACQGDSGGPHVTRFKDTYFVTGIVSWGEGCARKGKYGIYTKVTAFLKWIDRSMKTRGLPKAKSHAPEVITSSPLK
T2 sequence (P00742 41-179 limits assumed): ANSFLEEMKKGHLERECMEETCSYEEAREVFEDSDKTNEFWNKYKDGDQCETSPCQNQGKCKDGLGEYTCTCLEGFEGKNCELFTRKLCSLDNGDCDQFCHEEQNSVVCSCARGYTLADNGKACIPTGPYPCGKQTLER

B1: GKPQGHPHDALEARSDAVHTAVPKMPKGGHGGFEPIPIDYDERALEARSDAVHTAVPKMPKGGLGGFEPIPIDYDERALEARSDAVHTAVPKMPKGGHGGFEPIPIDYDERALEARSDAVHTAVPKMPKGGHGGFEPIPIDYDERALHALEHHHHHH (protein)
chain: GKPQGHPHDALEARSDAVHTAVPKMPKGGHGGFEPIPIDYDERALEARSDAVHTAVPKMPKGGLGGFEPIPIDYDERALEARSDAVHTAVPKMPKGGHGGFEPIPIDYDERALEARSDAVHTAVPKMPKGGHGGFEPIPIDYDERALHALEHHHHHH
modifications: Sculptin recombinat protein
notes: recombinant His-tagged protein modified from tick sculptin, expressed in E. coli
Question: For B1, which Koff (thrombin [1]; [3]) is on record?
Answer: 0.65±0.04×10^−3 s^−1

Question: What about the Kon (thrombin [1]; [3]) of the same molecule?
Answer: 4.04±0.03×10^7 M^−1 s^−1

Question: What about the “decrease of residual activity of thrombin” value (thrombin [1]; recombinant protein 1 nM, thrombin 100 pM, 6 h at 37° C., pH 7.4) of the same molecule?
Answer: about 97%

Question: What about the “Inhibition Type” value (thrombin [1]; this study) of the same molecule?
Answer: Competing

Question: And the “inhibition of factor Xa” value (factor Xa)?
Answer: did not inhibit

Question: What about the “SDS-PAGE strip of 20-kDa (non-digested recombinant protein)” value (plasmin; 10 μM protein with 1 μM plasmin, 6 h at 37° C.) of the same molecule?
Answer: completely disappeared

Question: And the “SDS-PAGE strip of 20-kDa (recombinant protein monomer)” value (plasmin; 10 μM protein with 1 μM plasmin, 18 h at 37° C.)?
Answer: completely disappeared

Question: And the “thrombin inhibition after incubation” value (plasmin; after 18 h incubation with plasmin, diluted to 100 pM)?
Answer: did not inhibit thrombin

Question: And the “SDS-PAGE strip intensity of 20-kDa (non-digested recombinant protein)” value (thrombin [2]; 10 μM protein with 1 μM thrombin, 6 h at 37° C.)?
Answer: decreased

Question: And the “SDS-PAGE strip of 20-kDa (recombinant protein monomer)” value (thrombin [2]; 10 μM protein with 1 μM thrombin, 18 h at 37° C.)?
Answer: completely disappeared

Question: And the “thrombin inhibition after incubation” value (thrombin [2]; after 18 h incubation with thrombin, diluted to 100 pM)?
Answer: did not inhibit thrombin

Question: And the “SDS-PAGE strip of 20-kDa (non-digested recombinant protein)” value (trypsin; 10 μM protein with 1 μM trypsin, 6 h at 37° C.)?
Answer: completely disappeared

Question: And the “SDS-PAGE strip of 20-kDa (recombinant protein monomer)” value (trypsin; 10 μM protein with 1 μM trypsin, 18 h at 37° C.)?
Answer: completely disappeared

Question: What about the “thrombin inhibition after incubation” value (trypsin; after 18 h incubation with trypsin, diluted to 100 pM) of the same molecule?
Answer: did not inhibit thrombin
